Data on two molecules can be found in publication PMC6637871, “Structural and functional insights into the modulation of the activity of a flax cytokinin oxidase by flax rust effector AvrL567‐A” (Molecular Plant Pathology, 2018).

For data set [1], the target named is LuCKX1.1 protein (residues 44-534), purified (flax (Linum usitatissimum)).
Substrate in data set [2]: C/C(=C\CNc1ncnc2[nH]cnc12)CO
Briefly: purified protein. The note with it: 0.5 mM DCPIP as electron acceptor, 1.6 µM LuCKX1.1, McIlvaine buffer pH 7.5, no AvrL567-A.

Substrate in data set [3]: CC(C)=CCNc1ncnc2nc[nH]c12
The data set can be described thus: purified protein. Type of data set: biochemical, Linum usitatissimum. The note with it: 0.5 mM DCPIP as electron acceptor, 1.6 µM LuCKX1.1, McIlvaine buffer pH 7.5, no AvrL567-A.

B1: AvrL567-A protein (residues 24-150), purified (natural protein)
chain: MEHVPAELTRVSEGYTRFYRSPTASVILSGLVKVKWDNEQMTMPLFKWIGGEQAEELHFCVHIAHSSGPKLNRARSLGTVNSNMDQHWAQAQRNSGATRRTIEGFHLFENDIPNFPDYIKIKLVPKT
In the case of B1, in data set [1], the turnover rate (Kcat) of LuCKX1.1 towards 2iP in the DCPIP kinetic assay, with 1.6 uM AvrL567-A against without it was 50% and the turnover rate (Kcat) of LuCKX1.1 towards tZ in the DCPIP kinetic assay, with 1.6 uM AvrL567-A against without it was found to be 130%.

B2: LuCKX1.1 (Linum usitatissimum) (protein)
chain: LQGSIDYSTLAADFTGKDFGGVYSSNPLALIRPSGADDVARVLKSACRSSNLTVAARGNGHSINGQAMADGGIVLDMRSTEGNHFKILRINGGDHTAYADVSGGALWEDILMRCVSEYGLAPRSWTDYLRLTVGGTLSNAGVSGQAFRYGPQSSNVTELDVVTGKGDFLTCSPTHNSDLFFGALGGLGQFGVITRARIPLEPAPDMVRWIRMVYAEFEDFSRDAEWLVTQPEKESFDYVEGFAFVNSDSPADGWPSVPLYPNHMMEPTTPIHSGHQLLYCLELALHFNHSNSSSTVDSVVKRLIGGLRYMKGFKYEVDLSYVEFVMRVKRVEEDARAHGMWDAPHPWLNLFVSKADIAEFDRLIFKGLLHDGVGGPMLVYPLLRSKWDSRSSVVLPEGEDEIFYIVALLRSNPPYPKGPSVDKLVSQNDKIIQSCIQHGLGFKLYLPHYQSQHDWRRHFGDQWSKFVQLKLAFDPMAVLAPGQKIFTRTTK
notes: crystal model residues 44-532, two molecules per asymmetric unit; FAD covalently linked to His104
Consider B2, for which the results for the Km in “purified protein [2]” and in “purified protein [3]” were 64 µM and 44 µM, respectively. The kcat in “purified protein [2]” came to 0.69 s⁻¹; in the data set “purified protein [3]”, 5.4 s⁻¹.
